Results reported in the supplement of paper PMC11865577.

system: TO-N3 (biotin conjugate); assay: pull-down binding Z-score (relative to library population); higher = stronger binding; settings: RNA library: Library-2
Outline: (§1)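 To score binding, a beads-only signal was subtracted, barcoded replicate probes were averaged with the highest and lowest dropped, and the value was converted to a Z-score using the library mean and standard deviation. The input was 1 μg of Cy5- or Cy3-end-labelled RNA library, heat-folded in phosphate/NaCl/KCl buffer and mixed for 60 min at 25 °C with streptavidin beads carrying 100 pmol of biotin-conjugated small molecule. Bound RNA was eluted in hot SDS and hybridised to a DNA barcode microarray at 55.5 °C for 20 h.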

Question: For “UGCAGUUAGUGAAGCAGCUUAGAAUCUACUGCC [hsa-mir-18b]”, which “pull-down binding Z-score” value is on record?
Answer: The value was 0.989.

Question: Which “pull-down binding Z-score” value does the source give for UGCAGUUCUGUUGGGUGACAGCA [hsa-mir-6499] here?
Answer: The value was 0.342.

Question: With UGCAUAAAUGAAGCUGAAUGA [hsa-mir-6134] as the sequence, how does the “pull-down binding Z-score” value read?
Answer: The value was -0.0557.

Question: For “UGCCACCCAGCCCUGCAGAGCCCCUGACUC [hsa-mir-6814]”, which “pull-down binding Z-score” value is on record?
Answer: The value was 1.16.

Question: UGCCAUACUUUUAACGGCA [hsa-mir-548i-4] was tested. Which “pull-down binding Z-score” value did it give?
Answer: The value was -1.09.

Question: How did the “pull-down binding Z-score” value turn out when “UGCCAUUAAAAGUAAUGGCA [hsa-mir-548i-3_548i-2_548i-1]” was run?
Answer: Its value is 0.141.

Question: For UGCCAUUACUCUCAGUGGCA [hsa-mir-548y], which “pull-down binding Z-score” value is on record?
Answer: The value was -1.16.

Question: Which “pull-down binding Z-score” value does the source give for UGCCCUAGCGGCU [hsa-mir-4268] here?
Answer: Its value is -0.211.

Question: With UGCCCUGGGGCCGUCCCUGCGCA [hsa-mir-1909] as the sequence, how does the “pull-down binding Z-score” value read?
Answer: Its value is 0.883.

Question: For “UGCCUACUACUGAUGACAUACAAUGUAAGUGCUCAUUUAGGCG [hsa-mir-5696]”, which “pull-down binding Z-score” value is on record?
Answer: Its value is -0.71.

Question: How did the “pull-down binding Z-score” value turn out when UGCCUCUCGGGGU [hsa-mir-6073] was run?
Answer: The value was 0.118.

Question: For “UGCCUUGUAGCAUUCAGGUCAAGCA [hsa-mir-103a-2]”, which “pull-down binding Z-score” value is on record?
Answer: The value was -0.524.

Question: How did the “pull-down binding Z-score” value turn out when “UGCGUUAGGAUUUCUGUAUCAUCCUCCUAACGCA [hsa-mir-3166]” was run?
Answer: The value was 0.306.

Question: “UGCUAUUACUUGUAUUUAUUUGUAAUGCA [hsa-mir-548ab]” was tested. Which “pull-down binding Z-score” value did it give?
Answer: Its value is -1.33.

Question: How did the “pull-down binding Z-score” value turn out when UGCUAUUAGAAAGUAAUGGCA [hsa-mir-548ba] was run?
Answer: The value was 0.776.

system: TO-N3-2 (biotin conjugate); assay: as above; settings: RNA library: Library-2
Outline: as §1

Question: For UCUUCCCAAAGUUGAGAAAA [hsa-mir-320d-1], which “pull-down binding Z-score” value is on record?
Answer: The value was -0.758.

Question: UCUUCCCAGAAUUGGGAAAA [hsa-mir-320c-2] was tested. Which “pull-down binding Z-score” value did it give?
Answer: Its value is -1.68.

Question: For UCUUCCCAGAGUCAGGAAAA [hsa-mir-320c-1], which “pull-down binding Z-score” value is on record?
Answer: Its value is 0.191.

Question: For UCUUCCCGGAGUCGGGAAAA [hsa-mir-320a], which “pull-down binding Z-score” value is on record?
Answer: The value was -0.901.

Question: For UCUUCUUGGAGUCAGGAAAA [hsa-mir-320d-2], which “pull-down binding Z-score” value is on record?
Answer: Its value is -0.514.

Question: How did the “pull-down binding Z-score” value turn out when UCUUCUUUUGGAAGGAAGA [hsa-mir-3122] was run?
Answer: Its value is -1.53.

Question: With UCUUGAAUUUUUGCCAGUUCAAGA [hsa-mir-5197] as the sequence, how does the “pull-down binding Z-score” value read?
Answer: The value was -1.38.

Question: With “UCUUGGUGCCACCAUUGAGAACGCCAGGA [hsa-mir-492]” as the sequence, how does the “pull-down binding Z-score” value read?
Answer: The value was 0.868.

Question: UCUUUCAUUUUGGAUUUGACU [hsa-mir-766] was tested. Which “pull-down binding Z-score” value did it give?
Answer: Its value is -0.612.

Question: “UCUUUGGUAAUAAGGUUUGGCAAAGA [hsa-mir-576]” was tested. Which “pull-down binding Z-score” value did it give?
Answer: The value was -0.0599.

Question: Which “pull-down binding Z-score” value does the source give for UGAAAGGUUUUUUCUCUCA [hsa-mir-4797] here?
Answer: Its value is -0.918.

Question: For “UGAACAGUGAUUGGUUUCCGCUUUGUUCA [hsa-mir-27b]”, which “pull-down binding Z-score” value is on record?
Answer: The value was -0.317.

Question: “UGAAGAAGAGUAUUGAUUGUGCUGUUCG [hsa-mir-6788]” was tested. Which “pull-down binding Z-score” value did it give?
Answer: The value was 0.16.

Question: For “UGAAGCCCCGAGAUGCCUCACGUCUUCA [hsa-mir-6802]”, which “pull-down binding Z-score” value is on record?
Answer: The value was 0.573.

Question: Which “pull-down binding Z-score” value does the source give for UGAAGGUCACCAUGUUCUCCUUG [hsa-mir-3187] here?
Answer: The value was -0.229.

Question: For UGAAUAUGUAAUAUAAGUGUAUUG [hsa-mir-450b], which “pull-down binding Z-score” value is on record?
Answer: The value was -0.284.

Question: For UGAAUUGAAAUGCGUUACAUUCA [hsa-mir-95], which “pull-down binding Z-score” value is on record?
Answer: The value was 0.088.

Question: Which “pull-down binding Z-score” value does the source give for “UGACUACUUCGAAAAUGGGAAGUAGACA [hsa-mir-7849]” here?
Answer: The value was -0.497.

Question: For UGACUCAGAUCU [hsa-mir-759], which “pull-down binding Z-score” value is on record?
Answer: The value was -0.155.

Question: “UGAGACCUGGUGCAGAACGGGAAGGCGA [hsa-mir-551b]” was tested. Which “pull-down binding Z-score” value did it give?
Answer: The value was 1.76.

Question: With “UGAGCAGGCCCAGAACCCAGCUCGUGCUCA [hsa-mir-6794]” as the sequence, how does the “pull-down binding Z-score” value read?
Answer: The value was 0.805.

Question: “UGAGCAGGGUCCACACCAAGUCGUGUUCA [hsa-mir-27a]” was tested. Which “pull-down binding Z-score” value did it give?
Answer: Its value is 1.09.

Question: For “UGAGCAUUCUAGCAGCAGUUUGAUGAUCA [hsa-mir-6516]”, which “pull-down binding Z-score” value is on record?
Answer: The value was -0.196.

Question: Which “pull-down binding Z-score” value does the source give for UGAGCAUUUUUACUGAAUUGCCA [hsa-mir-6715a] here?
Answer: Its value is -0.686.

Question: How did the “pull-down binding Z-score” value turn out when “UGAGCUGUGAUGUUGCUCUCGAGCUGG [hsa-mir-769]” was run?
Answer: Its value is 1.27.

Question: “UGAGGAGCUUAGCAAGUAGCUAAGGCCAGA [hsa-mir-4517]” was tested. Which “pull-down binding Z-score” value did it give?
Answer: Its value is 1.1.

Question: For UGAGGAGUAGAACACUCCUUA [hsa-mir-491], which “pull-down binding Z-score” value is on record?
Answer: The value was -0.939.

Question: Which “pull-down binding Z-score” value does the source give for UGAGGUACUUCCUUC [hsa-mir-1205] here?
Answer: The value was -0.169.

Question: UGAGGUUUACUAUGGAACCUCA [hsa-mir-4465] was tested. Which “pull-down binding Z-score” value did it give?
Answer: The value was -1.53.

Question: Which “pull-down binding Z-score” value does the source give for “UGAGUACAUUAUUUAUGAUUAAUCA [hsa-mir-376a-1]” here?
Answer: Its value is -0.847.

Question: For UGAGUGAUGACUCAGGCGACUCCA [hsa-mir-338], which “pull-down binding Z-score” value is on record?
Answer: Its value is 1.51.

Question: UGAGUGCCGACUGGCGCCUG [hsa-mir-4750] was tested. Which “pull-down binding Z-score” value did it give?
Answer: The value was 0.446.

Question: For UGAGUGCUAUUUCAGUGCAACA [hsa-mir-362], which “pull-down binding Z-score” value is on record?
Answer: Its value is 0.0784.

Question: Which “pull-down binding Z-score” value does the source give for “UGAGUGGCAUAAUCAGAGUACAAUUUGAGUCAUGCCCAUACAUCA [hsa-mir-23c]” here?
Answer: The value was 0.0219.

Question: Which “pull-down binding Z-score” value does the source give for UGAGUUUA [hsa-mir-451a] here?
Answer: The value was -0.372.

Question: “UGAUCAUUAUAUGUAUGAUGAGAUCAU [hsa-mir-4528]” was tested. Which “pull-down binding Z-score” value did it give?
Answer: The value was -0.0235.

Question: For “UGAUUUGUGACUUAAGAUUAAAAUCA [hsa-mir-23b]”, which “pull-down binding Z-score” value is on record?
Answer: Its value is -0.649.

Question: With “UGCAAAUGCAAAGUUGGCUUUUGCA [hsa-mir-3680-2_3680-1]” as the sequence, how does the “pull-down binding Z-score” value read?
Answer: The value was -0.878.

Question: How did the “pull-down binding Z-score” value turn out when “UGCACCACUCUCCCUGUGAUGAGGUGAA [hsa-mir-4786]” was run?
Answer: The value was 0.456.

Question: Which “pull-down binding Z-score” value does the source give for “UGCACCAGUUCUGGCCGCUGGUGGA [hsa-mir-4683]” here?
Answer: Its value is 0.856.

Question: How did the “pull-down binding Z-score” value turn out when UGCAGAUGUGGACUGCUAAAUGCA [hsa-mir-1253] was run?
Answer: The value was 0.384.

Question: For UGCAGUAUCCGCUGUUGCUGCU [hsa-mir-6132], which “pull-down binding Z-score” value is on record?
Answer: The value was 0.672.

Question: How did the “pull-down binding Z-score” value turn out when “UGCAGUGAGCAACCUACACAACUGCA [hsa-mir-5589]” was run?
Answer: Its value is -0.188.

Question: Which “pull-down binding Z-score” value does the source give for “UGCAGUGCUGGGCAUGGGCUUCUCG [hsa-mir-3677]” here?
Answer: Its value is 1.54.

Question: Which “pull-down binding Z-score” value does the source give for “UGCAGUUAGUGAAGCAGCUUAGAAUCUACUGCC [hsa-mir-18b]” here?
Answer: The value was 1.47.

Question: For UGCAGUUCUGUUGGGUGACAGCA [hsa-mir-6499], which “pull-down binding Z-score” value is on record?
Answer: The value was 0.485.

Question: For UGCAUAAAUGAAGCUGAAUGA [hsa-mir-6134], which “pull-down binding Z-score” value is on record?
Answer: Its value is 0.629.

Question: “UGCCACCCAGCCCUGCAGAGCCCCUGACUC [hsa-mir-6814]” was tested. Which “pull-down binding Z-score” value did it give?
Answer: Its value is 1.44.

Question: How did the “pull-down binding Z-score” value turn out when UGCCAUACUUUUAACGGCA [hsa-mir-548i-4] was run?
Answer: Its value is -1.06.

Question: With “UGCCAUUAAAAGUAAUGGCA [hsa-mir-548i-3_548i-2_548i-1]” as the sequence, how does the “pull-down binding Z-score” value read?
Answer: Its value is -0.409.

Question: With UGCCAUUACUCUCAGUGGCA [hsa-mir-548y] as the sequence, how does the “pull-down binding Z-score” value read?
Answer: The value was -1.01.

Question: How did the “pull-down binding Z-score” value turn out when UGCCCUAGCGGCU [hsa-mir-4268] was run?
Answer: The value was -0.238.

Question: For UGCCCUGGGGCCGUCCCUGCGCA [hsa-mir-1909], which “pull-down binding Z-score” value is on record?
Answer: The value was 1.63.

Question: How did the “pull-down binding Z-score” value turn out when “UGCCUACUACUGAUGACAUACAAUGUAAGUGCUCAUUUAGGCG [hsa-mir-5696]” was run?
Answer: Its value is -0.201.

Question: Which “pull-down binding Z-score” value does the source give for UGCCUCUCGGGGU [hsa-mir-6073] here?
Answer: The value was 0.214.

Question: How did the “pull-down binding Z-score” value turn out when “UGCCUUGUAGCAUUCAGGUCAAGCA [hsa-mir-103a-2]” was run?
Answer: Its value is 0.0485.

Question: Which “pull-down binding Z-score” value does the source give for “UGCGUUAGGAUUUCUGUAUCAUCCUCCUAACGCA [hsa-mir-3166]” here?
Answer: Its value is -0.758.

Question: Which “pull-down binding Z-score” value does the source give for “UGCUAUUACUUGUAUUUAUUUGUAAUGCA [hsa-mir-548ab]” here?
Answer: Its value is -1.59.

Question: With UGCUAUUAGAAAGUAAUGGCA [hsa-mir-548ba] as the sequence, how does the “pull-down binding Z-score” value read?
Answer: Its value is -0.00903.
